In the DeepSol protein solubility set:

Assay: soluble on expression in E. coli; label from the status in PepcDB or PDB records

Sequence	soluble on expression in E. coli
MSLSVEFNKQQVRPRSEISPQDCWDITPLYLNRKAWKADLDSFGLKTDGSPTWPALQATQYQLDNSESLLSLLTTLFSIERKLNKLYVYAHLTHDQDITNQEGIADLKSITHLHTLFAEETSWVQPALTSLSESLIAQHLSAPCLAPYRFYLEKIFRLSIHTGTPGEEKILASAFTPLEVASKAFSSLSDSEIPFGQATDSEGNSHPLSHALASLYMQSTDRELRKTSYLAQCERYHSYRHTFANLLNGKIQAHVFYAKNKRYNSCLQAALYHNNIPTTVYTNLIDIVKKNSSLITKYFSIKQRCLNLKDFHFYDVYAPLSQSKEKKYTFQEAVDLIYTSLSPLGTEYIDTLKQGLTTQGWVDKYENLNKRSGAYSSGCYDSHPYVLLNYTGTLYDVSVIAHEGGHSMHSYFSRKHQPFHDAQYPIFLAEIASTLNEMLLMDSMLKESDSKEEKITILTRCLDTIFSTLFRQVLFASFEYDIHHAAEHGVPLTEEYLSSTYKNLQNEFYGEIITFDVLSNIEWARIPHFYYNFYVYQYATGIIAALCFLEKILNNEDNALNSYLNFLKSGGSDFPLEILKKSGLDMGTVEPIQKAFCFIEKKIQELSSLIEGHHHHHH	soluble
MSLSVKILALDTATERCSVALLVGNTVYSRSEIAPRDHTKKVLPMVDEVLKEAGVTLQELDALAFGRGPGSFTGVRIGIGIAQGLAFGADLPMIGISTLAAMAQAAYRLQGLTHVASAIDARMEEVYWGRYVRQEDGSWQVAEAECVIAPALLAQTLTQDDLTQDEQIWATAGTGWDAYPALADLPLQLQTSEVLYPDAQDMAYLAQFELAQGNKVSVEQASPVYLRDTVAWKKLPGREEGHHHHHH	soluble
MSLSVKIVIKPNTYFDSVSLMSISTRANKLDGVEQAFVAMATEMNKGVLKNLGLLTPELEQAKNGDLMIVINGKSGADNEQLLVEIEELFNTKAQSGSHEARYATIGSAKKHIPESNLAVISVNGLFAAREARQALQNDLNVMLFSDNVSVEDELALKQLAHEKGLLMMGPDCGTAIINGAALCFGNAVRRGNIGIVGASGTGSQELSVRIHEFGGGVSQLIGTGGRDLSEKIGGLMMLDAIGMLENDPQTEIIALISKPPAPAVARKVLERARACRKPVVVCFLDRGETPVDEQGLQFARGTKEAALKAVMLSGVKQENLDLHTLNQPLIADVRARLQPQQKYIRGLFCGGTLCDETMFAVMEKHGDVYSNIQPDPEFRLKDINRSIKHTFLDFGDDDFTNGKPHPMIDPTNRISRLIEEARDPEVAVIVMDFVLGFGSHEDPVGSTIETIKEAKAIAAAEGRELIILAYVLGTDLDTPSLEQQSQMLLDAGVILASSSTNTGLLAREFICKGEEGHHHHHH	soluble
MSLSVLKICTKDQKGLIYRISDVIFKYHINIVKNDEFVGEGMFFFRALLEGEFDKEAFIGTLEAMLGQEALIELCEKRKKDIVVFATKESHCLGDLLIKHYSNELEANIKAVISNHNSLKDLVEKFEIPYHFISAENLDRKEQENQILKCLEQYKFDYLVLAKYMRILSPDFVRHFEGKIINIHHSFLPAFIGANPYKQAFERGVKIIGATAHFVNNNLDEGPIITQAVSPVNHEFTWQDMQQAGRNIEKDVLSKALDLAFEDRIFIHNNKTIIFEGHHHHHH	soluble
MSLSVPQKRYFLGLHIGHDRAITVADDTNLVFHTAVERLDRKKHSDSFHLPVEEIKTVLLYLNVDVSELRGVCISYLAVDASRVSMTLEASFRDAFPDFEGRFSALDHHLAHALGAKVCSGFDEALVVVADGAGDQRLWGSQSETIYHVSSDTFYLLDERVQSPPLTYINRPEFYDPSYFRPDDQERQISLGLKYEQITYLCGFGPGQAGQTMALAAFGKPLFDYRNMLPKDLSFSLRYTDFLREFEALARADGLSLIQFAKSRRSDIAATYQAYLSEALSAIVKDALDRFPSKRVCFSGGLFLNCLSNRRLHDEHPDRELFFFPACNDEGQSIGTAAYAYWQEHSRLPREGHHHHHH	not soluble
MSLSVVERIFNHSESRPDCIAVYENDRTISYENLASDIKKTAAKLVSLGVTSEDAVLVRSNNSYSFILLYFSIHYVGAKFVNVAPDSDVSYVSFIEDKVNPKLFIEKSQDFIRNIDSYTFDNIFPPQARGIADIMFTSGTTGEPKGVLLSHKSLVLATEHIISHVKNTNEDVELLLMPLSHSFAMARMRTSLFAGGAIVVGCSFKQLKSVFKAIEFYKVTGLGLVPSAWSYITLMTKDLIRKYSEQLNFIEFGSAHFPFEDKKQVAEWFPNTNVVMHYGLTEVSRATFIDFHNDDINAVGHRYRGADFKIIDNKGAEVIEGEEGEIVFKAPWMLDGYFENSQLTSDCFVEGYFKTGDLGRVVGDYLFLTGRLKEIINVGGKKVSPDQVEKVLSEALGVQECACAALSDANMGEVVQAYIVVKSGWDCENVISNIKETINGQLPMHMRPKKYSIVSALPKTVSGKVQRYKLSSEGHHHHHH	soluble
MSLSVYEKVNALDKRAIEELFLSEDILMENAAMALERAVLQNASLGAKVIILCGSGDNGGDGYALARRLVGRFRVLVFEMKLTKSPMCQLQKERAKKAGVVIKTYEENALNQNLECDVLIDCVIGSHFKGKLEPFLNFESLSQKARFKIACDIPSGIDSKGRVDKRAFKADLTISMGAIKSCLLSDRAKDYVGELKVGHLGVFNPIYEIPTDTFLLEKSDLKLPLRDKKNAHKGDYGHAHVLLGKHSGAGLLSALSALSFGSGVVSVQALECEITSNNKPLELVFCENFPNLLSAFALGMGLENIPKDFNRWLELAPCVLDAGVFYHKEILQALEKEAVLTPHPKEFLSLLNLVGINISMLELLDNKLEIARDFSQKYPKVVLLLKGANTLIAHQGQVFINILGSVALAKAGSGDVLAGLILSLLSQNYTPLDAAINASLAHALASLEFKNNYALTPLDLIEKIKQLEGHHHHHH	soluble
MSLTADTSLSSIQEAINVVQQYNATDPVRLKLFHTPRMVSQGAHFAFCLPTKKPHYKPLLLSQNALDEFNLVQDQDLEKILSGEKVYYSDSIFPYSTVYSGFQFGSFAAQLGDGRVVNLFDLKDKCSGQWQTFQLKGAGMTPFSRFADGKAVLRSSIREFIMSEALHSIGIPSTRAMQLTLLPGTKAQRRNQEPCAVVCRFAPSWIRLGNFNLFRWRHDLKGLIQLSDYCIEELFAGGTQFEGKPDFNIFKRDFFPDTETKIDEQVEKDETEVSTMTGDNISTLSKYDEFFRHVVSLNANTVAHWQAYGFANGVLNTDNTSIMGLTIDYGPFAFLDKFEPSFTPNHDDTAKRYSFANQPSIIWWNLQQFAKDLACLLGPEARDLELLLKGELNSVDDALEKTMIERVQKLVELSANEYKYVFTTRYAQIMSQRLGVDLDLEKCMSSTNLKDIEHAAEKAKEFCDVIVEPLLDILQATKVDYNNFFIHLQNYKGPFFIKDKSDTATLFGAFDEEYLGMFFNSKQLQQMAETEEAFAAGEKVFDANGELRLLNEKLQEIRNWTQDYLTLVPPTETAARASLAKKANPLFVPRSWVLEEVVDDLMYSQRDGLQDPSSELDTSALKKLYLMSVNPYDRTKWDVTLRPELETKWADLSHQDDAKFMMQASCSSEGHHHHHH	soluble
MSLTESFSTPKFHISPTGMIMEGAQLHIKCTIQVTHLAQEFPEIIIQKDKAIVAHNRHGNKAVYSVMAMVEHSGNYTCKVESSRISKVSSIVVNITELFSKPELESSFTHLDQGERLNLSCSIPGAPPANFTIQKEDTIVSQTQDFTKIASKSDSGTYICTAGIDKVVKKSNTVQIVVCEMLSQPRISYDAQFEVIKGQTIEVRCESISGTLPISYQLLKTSKVLENSTKNSNDPAVFKDNPTEDVEYQCVADNCHSHAKMLSEVLRVKVIAPVDEVQISILSSKVVESGEDIVLQCAVNEGSGPITYKFYREKEGKPFYQMTSNATQAFWTKQKASKEQEGEYYCTAFNRANHASSVPRSKILTVRVIEGHHHHHH	not soluble
MSLTEYVDAVPAASMTVCTVQHTDTTPQHSINEDRVIPLDSNKGIADMEFGDAHTLAHRVSASAERMYRFSSIETTQFIKILLRKMAARMASLASCHTHVYASSHSLPWDSACEHYIFGMRRILIEGHHHHHH	not soluble
MSLTGFLLLHGTIVTVDRERRIIEDGALAINDDRIVDIGTVDELEPRHGGKEVIDCRGKLIIPGLIDAHGHAGHALLRSIAADTNAMWMKIITPTYYHYVTRDYWYADGLISGIERLRAGVTTGASIITSMPRADDPVFAINHARAYSELGLREIICVGPSGLPWPHPVTRWESGQPERRDVSFDEMMDGSEAVIETLHGSADGRISVFLTPFTIVPSVEPSNASSPDQAVKLTEGDRMQARRVREMARKRGVRLHSDAFAGQIRMAFQDKENALLGPDIHLQHCWGISHDEIDILAETGTRVTHAPPGRSTPIMEMMSKSIRVAITTDGAAPSRHFDMLQTARLAQFTQHLLHNHDRYLLPPGKIFEMITIDAAHAIGMEDEIGSLEIGKKADVVIIDMRKPHLMPMWMPVHRLVHQALGSDVDTVFVDGKLLMDNGRVLTSDVDAAITFGQQEAMALAERAGLKVHMHDPGWGRLLRTFDEQVYPPRPPKDASYRVTDHESGQDHEGHHHHHH	soluble
MSLTHTSDKHVTDEELELVTRGKADGIYMKAPNGSPTSLNERQWVQVRTRAFKNWFGDWENVPEAASRIPDDKYGNEQWTEEGYVYDLYVNSRNPFDPKDGQAVKKILQSLGSEIPVLSFYGGKGGTVSPEKALELASSKRNCWMLTETPEFLSKVREAGYDGLVGYDEGVKYIAVMSPGQLKDAYENTGAFSTSNDDIRFRQVYHGSPASLGHFDHAFTGTGEGAQAYGWGTYVTEVKGIARKYAAIGIKRGNHITYDGEPLSPVLDNEYYFDEVWRIWKRQILSSTDVDSLKRNISSVYMDGRTASAYSGRRKAFERQKQELLSDIDAGRIRIEPPRHLYTVEIPEDNGMNYLYWDRPVSAEQQGKIFLQLRKERFFFPEATAEFWSGRSHVWNSGKEFYGFLDYMFMNPDRDTDSQRLASGFLSRAGFTGIDYPAECSTGGRADGARNYVIFSEADLKITAHERFRFIGEKGASRLDRSEGASLRLENLAVAREMEKSGKDAGTIKAATGWERGADSKWRYETADFEYHPAGDLGYSRLLEKQSWHGELENLLDRQIEGETLSEAEWKRFEKLTELAAGLKEQDALRERIYLDDYVKDDELFQAYPEMKRTRLEFVDLPSADYCGGYLHPDNRIVINISRTDDVRSVLAHEIQHAIQTMEGFARGSNPGEFKNTVENVILDIVRATDGRILEGGGFDNTPKGIFAALDRKVPYGTILRHYDYPLSLVAEKYGYENIFDLVNDIGRFKSGIQEYRSTAGEVEARNVESRLDFTSAQRRNTLAVSTEDIARNGQIFLSRDVRMDELARHVSFLAGKLHIPVEVIRHADEVGSPDIRGLLSCGKDIRGWYDIPSQRVCLYLPHVRGKADVERTLLHEGVAHYGLRKLAGHKHMDAFLDDIFNGCGEKVRDEILRMAAADRTDIRVATEEYLARMAEDGTDQSLWDRIVTAFRNLLRKLGFCLEIGTRELRGILAASRKNLIGIAEPTVIQTARGDLELSCGYGRAVLRRQGVETDVTSLLERMRKAGISPASLGQEDWKAVFNGGIILPGGRKLMAVREPAGYGMRISGVSPGSTREGHHHHHH	soluble
MSLTITLRVLGTSVTLLESLRERAEQELGIKLVYQIHDVQTAQRIAVMQPDSYDLYDQWFHNVDFVWPARAIQPIDTRRIALWHEINDLPKRGRLRPTDQPGSGSVPSERLFVQHDGSLGSTVTERISMLPLTHNADSFAYRPERLPEGLSPADESWGWLLDSAWGGRIALQSDAAIGALDAALAVQGAGLAQFNDIGNMSIEEIDLLADVLVRKQQQGHFGAFWSDDEEAAELMLSPTIDIQSLWSPTLVRLHRAGVKYRVAVPKEGYRGWFGGLSLSRYAKGPVLDAAYAYLNWWLSGWPGAVMARQGYYIGNPARSRDHLSAAEWDYWYAGLPAREQLLGSDGLPLIDAGEIRDGGSYEERMGHIAVWNSVMNEHNYLVRRWSDILRASGKSSAKAREGHHHHHH	soluble
MSLTLIYGHRGAKGEAPENTLASFQRCLEHGVNRCELDLHLSRDGELMVIHDPTLKRTTGRRGKVAEHDAATLATYDARKGGPGWVRPTPIPRLEELFEKCPFEHWQLEVKSASRERAARTVTRIRELTERFGNRDKVTVTSGSRTVLKALNELTPELSRGLVAEYAWLDPLKVAQHYGCALLALNWTLCTPERLLKAQRQGLHVSVWTVNEPALMRRLADFGVDSLITDFPGLASATLGNEGHHHHHH	not soluble
